Patent publication US5773001 (American Cyanamid Company, dated 1998)

Columns and labels:
[1] = molecular target: T1, polymorphic epithelial mucin (PEM) (human, UniProt P15941); assay: reactivity of affinity column fractions with the CTM01 MAb
[2] = molecular target: T1, polymorphic epithelial mucin (PEM); assay: competition EIA on PEM-coated plates; competitor biotinylated CTM01 MAb
CD33 antigen (human) = CD33 antigen (human) (UniProt P20138); assay: competition binding on HL60 cells against murine antibody
soluble CD33 antigen = soluble CD33 antigen (Homo sapiens (Human), UniProt P20138); assay: inhibition of binding to HL60 cells by pre-incubation with soluble antigen

B1: CTM01 MAb (antibody, V domains shown)
VH: QIQLQQSGPELVKPGASVKISCKASGYTFTDYYINWMKQKPGQGLEWIGWIDPGSGNTKYNEKFKGKATLTVDTSSSTAYMQLSSLTSEDTAVYFCAREKTTYYYAMDYWGQGTSVTVSA
VL: DIVMTQAAPSVPVTPGESLSISCRSSKSLLHSNGDTFLYWFLQRPGQSPQLLIYRMSNLASGVPDRFSGSGSGTAFTLRVSRVEAEDVGVYYCMQHLEYPFTFGAGTKLELKR
B1: binds [1].

B2: gL1gH2 (antibody, V domains shown)
VH: QIQLVQSGAEVKKPGSSVKVSCKASGYTFTDYYINWMRQAPGQGLEWIGWIDPGSGNTKYNEKFKGRATLTVDTSTNTAYMELSSLRSEDTAFYFCAREKTTYYYAMDYWGQGTLVTVSS
VL: DIQMTQSPSTLSASVGDRVTITCRSSKSLLHSNGDTFLYWFQQKPGKAPKLLMYRMSNLASGVPSRFSGSGSGTEFTLTISSLQPDDFATYYCMQHLEYPFTFGQGTKVEVKR
B2: binds [2].

B3: h-P67.6 (antibody, V domains shown)
VH: EVQLVQSGAEVKKPGSSVKVSCKASGYTITDSNIHWVRQAPGQSLEWIGYIYPYNGGTDYNQKFKNRATLTVDNPTNTAYMELSSLRSEDTDFYYCVNGNPWLAYWGQGTLVTVSS
VL: DIQLTQSPSTLSASVGDRVTITCRASESLDNYGIRFLTWFQQKPGKAPKLLMYAASNQGSGVPSRFSGSGSGTEFTLTISSLQPDDFATYYCQQTKEVPWSFGQGTKVEVKR
With B3 the loss in immunoaffinity against the murine antibody (CD33 antigen (human)) was 50% and the binding result (soluble CD33 antigen) was “binds”.
